A short description of the series: Foaming of eye drop solution containing a foaming agent mixed with gas. The class given is physicochemical. From the text: The preferred embodiment is a solution containing between 0.25%-5% of hydroxypropyl methylcellulose. This has been proven to produce a foam that is capable of holding enough gas to result in a 90% reduction in volume of the medication distributed in a drop. In other words the foam that is created is 90% gas and 10% liquid. The addition of hydroxypropyl methylcellulose is one of many ways that the pharmaceutical composition of the eye medication can be changed.
Any preferred additive should have properties similar to hydroxypropyl methylcellulose such that a large reduction in volume of liquid from the foamed form to the liquid form is obtained. The additive should be chosen to reduce the risk of eye irritation and to minimize any potential binding of the active ingredient. Hydroxypropyl methylcellulose is especially preferred because it is already known to be a safe ingredient to be applied to the eye as it is currently used in many eye drops to lubricate the eye. It also produces a more viscous solution which increases the retention time in the eye, thus giving the medication more time to be absorbed.

Here are results for one substance from US20140369997A1, “Pharmaceutical composition for a foaming eye drop” (PASE, priority 2011, published 2014).

On to albumin, for which the “consistency of foam produced” value (albumin concentration between 1%-25%) was “foam of the desired consistency”. Moreover, the foaming agent quality entry (tested as foaming agent) is given as “excellent foaming agent”.
